Experiments:
[1] = biological target: 5TR MUC1 recombinant protein (human); experiment: affinity chromatography, elution from the MUC1 chromatography matrix
[2] = biological target: T1, MUC1 5TR (five tandem repeat recombinant MUC1, unglycosylated) (Homo sapiens, UniProt P15941 P15941:161-260); experiment: SPR; 100 mM NaCl, 5 mM MgCl2, pH 7.4; printed ka and kd would give 0.85 nM; p17 and claim list print SEQ 2 with 3' G instead of C; conditions: tags: 6xHis; expressed in E. coli BL21; biotin-XX labelled for SPR; about 11.8 kDa
Description: (§1) Biotinylated 5TR-MUC1 protein was immobilised on a BIAcore SA sensor chip (gold-streptavidin) and the system was optimised to reduce mass transport, steric hindrance, crowding, avidity and aggregation. A range of peptide concentrations, ranging from 1 μM to 1 nM were tested under different injection times and the optimum conditions used were 100 μL of 1 nM peptide in running buffer perfused over each individual channel at the rate of 25 μL/min for […]. Chip regeneration to peptide level was followed by the subsequent application of a 30 sec pulse with a solution of 10 mM NaOH. The aptamers were prepared in their selection buffers (phosphate buffer containing 100 mM NaCl, 5 mM MgCl₂, pH 7.4) at 1 μM and were applied with 30 sec injections with a 5 sec wash step with selection buffer to allow for non-specific analyte removal. The chip surfaces were regenerated (elution step) by the application of a 10 μL pulse of 1.5 M NaCl, 5 mM MgCl₂, pH 7.4.
(§2) The experimental BIAcore data were fitted to two mathematical equations for the determination of association (kₐ) and dissociation constants (kd) using non-linear regression analysis. […]
(§3) The concentration of free aptamer was assumed to be constant since an excess amount was applied to the system when compared to the amount of MUC1. […] The Kd was calculated from the following relationship: Kd is equal to kd/kₐ. […]

[3] = biological target: MUC1 5TR glycosylated with GalNAc (Tn antigen) (Homo sapiens, UniProt P15941 P15941:161-260); experiment: pulldown; Ni-NTA magnetic beads, 100 mM NaCl, 5 mM MgCl2, pH 7.4, 37 C; values in figure only; conditions: tags: 6xHis; expressed in E. coli BL21; glycosylated in vitro with ppGalNAc-T1
Description: The Qiagen kit containing agarose magnetic beads in the proportion of 5% solution coated with nickel for His-tag purification was used for the assay. Seven tubes each containing 900 μl of start buffer (100 mM NaCl₂, 5 mM MgCl₂, pH 7.4) used to resuspend a 10 μM solution of glycosylated MUC1 5TR peptide were prepared according to manufacturer's instructions:
10 μl of the 5% beads solution was added to the solution and incubated at 4° C. for half an hour with shaking, After 30 minutes, supernatant was removed. The beads were washed by adding start buffer, allowing 1-5 min of washing time. 1 mM (500 μl) of each Glycosylated MUC1 aptamer solution in start buffer were added to the previously prepared magnetic beads containing his-tagged glycosylated MUC1. The solution containing complexed beads and aptamer solution were allowed to incubate at 37° C. for 1 hour with shaking.
After one hour the supernatant was removed and its absorbance was measured using a UV spectrometer (Eppendorf, USA) at 260 nm. The remaining Magnetic beads were washed three times with 500 μl of wash buffer (150 mM NaCl₂, 5 mM MgCl₂, pH 7.4). The supernatant was removed and 50 μl of elution buffer (1.5M NaCl₂, 5mM MgCl₂, pH 7.4) were added. The elution buffer was allowed to incubate with magnetic beads for 5 min with shaking. The magnetic beads were spun for 30 seconds at 4000 rpm to a pellet. The magnetic beads were attracted by a magnetic bar and supernatant was removed. The eluted supernatant was removed and measured using a UV spectrometer (Eppendorf, USA) 260 absorbance.

[4] = biological target: T1, MUC1 5TR (five tandem repeat …); experiment: SPR; 100 mM NaCl, 5 mM MgCl2, pH 7.4; printed ka and kd would give 0.69 nM; conditions: tags: 6xHis; expressed in E. coli BL21; biotin-XX labelled for SPR; about 11.8 kDa
Description: as §1, §2, §3

[5] = biological target: T1, MUC1 5TR (five tandem repeat …); experiment: SPR; 100 mM NaCl, 5 mM MgCl2, pH 7.4; printed ka and kd would give 0.83 nM; conditions: tags: 6xHis; expressed in E. coli BL21; biotin-XX labelled for SPR; about 11.8 kDa
Description: as §1, §2, §3

[6] = biological target: T1, MUC1 5TR (five tandem repeat …); experiment: SPR; 100 mM NaCl, 5 mM MgCl2, pH 7.4; printed ka 0.207e7, kd 0.00098 would give 0.47 nM; conditions: tags: 6xHis; expressed in E. coli BL21; biotin-XX labelled for SPR; about 11.8 kDa
Description: as §1, §2, §3

T1 sequence (P15941 141-240, one chain of several): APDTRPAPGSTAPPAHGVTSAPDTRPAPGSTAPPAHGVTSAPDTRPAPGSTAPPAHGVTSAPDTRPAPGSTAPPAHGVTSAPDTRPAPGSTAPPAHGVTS
MUC1 5TR glycosylated with GalNAc (Tn antigen), sequence (P15941 141-240, one chain of several): as above
5TR MUC1 recombinant protein (human), sequence (main, as listed by the source): as the sequence (P15941 141-240, one chain of several) above

Row | Molecule | binding result [3] | further results
1 | C595 anti-MUC1 monoclonal antibody |  | NaSCN concentration at elution from the affinity matrix [1]: 0.8 M
2 | GGCTATAGCACATGGGTAAAACGAC (ssDNA) [MUC1 5TR-2] |  | Kd [2]: 85.2 nM
3 | GGGTTATATTACTCGGCCGGTGTAA (ssDNA) [5TR-T1] | binds | 
4 | TAGCCTTAATGCCTTTGTAAGGCGA (ssDNA) [5TR-T6] | binds | 
5 | AGTGGTGGTTTTATAAGACTGATAC (ssDNA) [5TR-T5] | binds | 
6 | TACTGCATGCACACCACTTCAACTA (ssDNA) [MUC1 5TR-4] |  | Kd [4]: 69 nM
7 | GCTGGGTAAATAGATGATTCCCGGC (ssDNA) [5TR-T4] | binds | 
8 | CAAACAATCAAACAGCAGTGGGGTG (ssDNA) [MUC1 5TR-3] |  | Kd [5]: 83 nM
9 | GAAGTGAAAATGACAGAACACAACA (ssDNA) [MUC1 5TR-1] |  | Kd [6]: 47.3 nM
10 | GGCGTACGGTAGGCGGGGTCAACTG (ssDNA) [5TR-T3] | binds | 
11 | CGGTCTACGGAGCCGCGTTAAACTT (ssDNA) [5TR-T7] | binds | 

Source: patent US20090286854A1, “APTAMERS DIRECTED TO MUCI” (The Open University, published 2009)
